This note sets out measurements from patent publication US11541126B1, “Anti-ASGR1 antibody TLR8 agonist comprising conjugates and uses thereof” (Silverback Therapeutics, Inc., priority 2020, dated 2023).

For assay [1], the target named is T1, human ASGR1 extracellular domain (ECD) (Homo sapiens, UniProt P07306).
T1 sequence (P07306 62-291 limits assumed): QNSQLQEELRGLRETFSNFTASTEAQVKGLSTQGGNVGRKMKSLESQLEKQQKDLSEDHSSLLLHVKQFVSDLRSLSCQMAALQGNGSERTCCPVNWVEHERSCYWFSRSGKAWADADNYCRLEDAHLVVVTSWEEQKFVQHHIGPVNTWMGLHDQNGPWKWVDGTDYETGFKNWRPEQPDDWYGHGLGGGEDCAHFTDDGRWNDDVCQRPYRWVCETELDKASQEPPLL
In words: Effect of calcium on binding to human ASGR1 ECD (OCTET). Further details: key to Ca^2+ Sensitivity during: Association / Ca^2+ Sensitivity during: Dissociation / Ca^2+ Sensitivity: N = No; Y = Yes. On the procedure: The ability of anti-human ASGR1 antibodies of this disclosure to bind to human ASGR1 in the presence or absence of calcium in binding buffer was examined. Briefly, ASGR1 antibodies were bound to immobilized human ASGR1 extracellular domain (ECD) at saturating levels and subsequently dissociated under three different conditions as follows: (a) binding and dissociation with buffer containing calcium (PBS+1% BSA+0.2% Tween20+0.9 mM CaCl2), pH 7.4); (b) binding with buffer containing calcium and dissociation with buffer lacking calcium; and (c) binding and dissociation with buffer lacking calcium. Analysis of ASGR1 antibody binding to human ASGR1 ECD was performed using the OCTET® Red 96 instrument and analyzed using the OCTET®Data Analysis Software 9.0 (ForteBio). His-tagged human ASGR1 ECD was immobilized to OCTET® Penta-His biosensors and ASGR1 antibodies were subjected to avidity binding under the conditions described above. Association with the ASGR1 ECD was measured by the rate of and increase in magnitude of signal response at a given antibody concentration. Dissociation from the ASGR1 ECD was measured as the rate of loss in signal upon removal of the antibody and further incubation with or without Ca^2+. […] Also tested were humanized antibodies hzH8K-1 and hzL4L-7.
Further analysis of the antibodies of this disclosure was to determine whether the presence of calcium was needed for binding (i.e., during association) of the antibodies to human ASGR1 ECD. […]

Assay [2] concerns human PBMCs cultured with ASGR1-expressing tumor cell line HepG2. Kind of assay: TNF-α production by human PBMC co-cultured with HepG2 (AlphaLISA). Type of assay: cell-based. Particulars: PBMC:HepG2 5:1, 24 hours. On the procedure:
The effect on TNF-α production by human PBMCs co-cultured with ASGR1 expressing HepG2 tumor cells and in the presence of anti-ASGR1-TLR8 agonist conjugates was examined. An increase in TNF-α production by human PBMCs would indicate that myeloid cells are being activated. Briefly, peripheral blood mononuclear cells (PBMC) were isolated from normal human donor blood using SEPMATE™-50 PBMC Isolation Tubes ([…] Technologies) according to manufacturer's instructions. Isolated PBMC were cultured with the ASGR1-expressing tumor cell line HepG2 or the ASGR1-negative cell line HEK 293 at a 5:1 ratio in the presence of titrated concentrations of anti-ASGR1-TLR8 agonist conjugates (G2D-Compound 2.14, J4F-Compound 2.14, K2E-Compound 2.14, L4L-Compound 2.14, hzL4L-7-Compound 2.14, hzL4L-14-Compound 2.14, H8K-Compound 2.14, hzH8K-1-Compound 2.14, and hzH8K-10-Compound 2.14, as well as control conjugates comprised of ASGR1-mAb-A-Compound 2.14, ASGR1-mAb-B-Compound 2.14, ASGR1-mAb-C-Compound 2.14, anti-digoxin mAb-Compound 2.14, and unconjugated antibody controls). After 24 hours, cell-free supernatants were collected and stored at −80° C. prior to analysis. TNF-α levels in the cell-free supernatants were quantified using the TNF-α (human) AlphaLISA® Detection Kit (Perkin Elmer) according to manufacturer's instructions.
(Bead proximity is the source of the signal in Alpha formats.)

A further assay concerns the target T2, rat CLEC10A ECD (Rattus norvegicus, UniProt P49301).
T2 construct: His-tagged rat CLEC10A ECD (R&D Systems) was immobilized to OCTET® Penta-His biosensors; purchased R&D Systems
T2 sequence (P49301 59-306 limits assumed): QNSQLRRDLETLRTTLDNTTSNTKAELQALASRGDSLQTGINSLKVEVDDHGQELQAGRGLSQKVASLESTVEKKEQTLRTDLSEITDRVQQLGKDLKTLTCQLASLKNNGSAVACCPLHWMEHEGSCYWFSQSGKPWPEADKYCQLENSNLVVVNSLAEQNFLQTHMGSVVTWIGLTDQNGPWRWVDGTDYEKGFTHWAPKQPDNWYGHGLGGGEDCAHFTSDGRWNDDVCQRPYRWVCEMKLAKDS
In words: OCTET avidity binding to immobilized rat CLEC10A ECD. Particulars: for Binding signal to rat CLEC10A ECD: in words; for Response, binding to rat CLEC10A ECD: test antibody at 25 μg/mL. On the procedure:
Analysis of binding to the rat CLEC10A ECD was performed using the OCTET® Red 96 instrument (ForteBio). His-tagged rat CLEC10A ECD (R&D Systems) was immobilized to OCTET® Penta-His biosensors and subjected to avidity binding of test antibodies in kinetics buffer (PBS+1% BSA+0.2% Tween20+0.9 mM CaCl2) at pH 7.4) in the following steps: (1) hydration of Penta-His biosensors in kinetics buffer (10 min); (2) regeneration and neutralization of Penta-His biosensor in 10 mM glycine-HCl (pH 1.5) and kinetics buffer, respectively in triplicate; (3) baseline acquisition (30 s); (4) immobilization of rat CLEC10A ECD to Penta-His biosensors at a concentration of 10 μg/mL (180 s); (5) second baseline acquisition (60 s); (6) association of test antibody at 25 μg/mL (60 s); (7) dissociation in kinetics buffer (60 s).
The interactions of test mAbs with rat CLEC10A ECD was analyzed using the OCTET® Data Analysis Software 9.0 (ForteBio).

The target in another assay is T3, rat ASGR1 (Rattus norvegicus, UniProt P02706).
T3 construct: expressed in transfected cells; host or cells: CHO-S
T3 sequence (P02706 1-284): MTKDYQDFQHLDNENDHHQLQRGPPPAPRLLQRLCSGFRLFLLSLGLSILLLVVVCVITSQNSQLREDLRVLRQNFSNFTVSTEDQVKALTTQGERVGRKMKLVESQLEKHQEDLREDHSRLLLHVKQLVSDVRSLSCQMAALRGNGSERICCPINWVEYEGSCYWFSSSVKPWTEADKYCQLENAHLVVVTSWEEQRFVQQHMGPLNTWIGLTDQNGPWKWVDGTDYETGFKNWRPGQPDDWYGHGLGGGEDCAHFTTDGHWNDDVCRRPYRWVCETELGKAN
In words: Cell binding to rat ASGR1 transiently expressed by CHO-S cells (GUAVA). The conditions noted are these: in words. As for the experimental part: Anti-human ASGR1 antibodies of this disclosure were examined for cross-reactivity with Cynomolgus macaque and rat ASGR1. Briefly, sequence encoding Cynomolgus macaque or rat ASGR1 was transiently transfected into CHO-S cells. Transfected cells were before performing cell binding assay. A total of about 1.5×10^4 transfected cells/well were added to 96-well V-bottom assay plate, incubated at 37° C., 5% CO2 for 48-72 hours, and then washed with culture medium before adding 100 μl of each ASGR1 antibody at different concentrations starting from 100 nM and 3-fold dilutions to a total of eight wells. The cells with antibody were incubated for 40 minutes at 4° C., then washed three times with 200 μl of fresh culture medium. To each well was added 50 μl PE conjugated goat anti-human Fc (SouthemBiotech) at 1:200 dilution in culture medium and then incubated at 4° C. for 20 minutes. After washing the plate once, the treated cells were resuspended in 200 μl culture medium and then the stained cells were analyzed on GUAVA® using Incyte software.

B1: hzH8K-1: "humanized anti-ASGR1 antibodies hzH8K-1 and hzH8K-10 as compared to parent mouse anti-ASGR1 antibody H8K" (antibody, V domains shown)
VH: QVQLQESGPGLVKPSQTLSLTCTVSGGSISSDYAWNWIRQHPGKGLEWIGYRSYRGSTSYNPSLKSRVTISVDTSKNQFSLKLSSVTAADTAVYYCARRGYYGSSSHWYFDVWGQGTTVTVSS
VL: DIQMTQSPSSLSASVGDRVTITCRASENIYSYLAWYQQKPGKAPKLLIYNAKTLAEGVPSRFSGSGSGTDFTLTISSLQPEDFATYYCQHHYGTPLTFGGGTKVEIK
modifications: Synthetic sequence hzH8K VH; Synthetic sequence hzH8K VL
As to B1, in assay [1], the “Ca^2+ Sensitivity” value is reported as “N”, the “Ca^2+ Sensitivity during: Association” value is listed as “N” and the “Ca^2+ Sensitivity during: Dissociation” value is recorded as “N”. In addition, the “TNF-α production from human PBMCs” value in assay [2] was “more efficient at inducing TNF-α production as compared to the parent antibody conjugates”. Further, in the assay with rat CLEC10A ECD, the “Binding signal to rat CLEC10A ECD” value was “even less above background binding” and the “Response, binding to rat CLEC10A ECD” value was found to be 0.0495 nm. Besides, the “Cross-reactivity with rat ASGR1” value in the assay with rat ASGR1 is recorded as “not rat cross-reactive”.

B2: hzL4L-7: "humanized anti-ASGR1 antibodies hzL4L-7 and hzL4L-14 as compared to parent mouse anti-ASGR1 antibody L4L" (antibody, V domains shown)
VH: QVQLQESGPGLVKPSQTLSLTCTVSGYSISSDYAWNWIRQHPGKGLEWIGYISYSGSTRYNPSLKSRVTITRDTSKNQFSLKLSSVTAADTAVYYCARRYRYDEGYGMDYWGQGTTVTVSS
VL: DIQMTQSPSSLSASVGDRVTITCRASENIYSNLAWYQQKPGKAPKLLIYAATNLADGVPSRFSGSGSGTDFTLTISSLQPEDFATYYCQHFWGTPPWTFGGGTKVEIK
modifications: human IgG1/kappa constant regions; Synthetic sequence hzL4.6L VH G27Y, S70T, V71R; Synthetic sequence hzL4L VL
Take B2: in assay [1], the “Ca^2+ Sensitivity” value is “N”, the “Ca^2+ Sensitivity during: Association” value was “N” and the “Ca^2+ Sensitivity during: Dissociation” value is “N”. Moreover, the “Sensitivity to calcium (difference in binding signal after dissociation >±10%)” value in assay [1] (in words) was “lacking sensitivity to calcium”. Besides, the “TNF-α production from human PBMCs” value in assay [2] is “more efficient at inducing TNF-α production as compared to the parent antibody conjugates”. In the assay with rat CLEC10A ECD, the “Binding signal to rat CLEC10A ECD” value is “No observable binding signal” and the “Response, binding to rat CLEC10A ECD” value is reported as “— (Antibodies tested with response of <0.02 nm were below the limit of detection (—))”. Further, the “Cross-reactivity with rat ASGR1” value with rat ASGR1 is given as “not rat cross-reactive”.
